Data from patent US20250090677A1 (MULTITUDE THERAPEUTICS, published 2025).
Like-named read-outs stand apart in the source and are kept apart here.

What was measured:
Human CDH6-ECD-His = target: T1, Human CDH6-ECD-His (human, UniProt P55285 54-615); assay: BLI (Octet), antibody on AHC sensor, antigen 3.13-100 nM, 1:1 model
T1 construct: extracellular domain; Bought protein; also called human CDH6-ECD-His recombinant protein; Human CDH6-EC6D-His; not shown: His tag
T1 sequence (looked up): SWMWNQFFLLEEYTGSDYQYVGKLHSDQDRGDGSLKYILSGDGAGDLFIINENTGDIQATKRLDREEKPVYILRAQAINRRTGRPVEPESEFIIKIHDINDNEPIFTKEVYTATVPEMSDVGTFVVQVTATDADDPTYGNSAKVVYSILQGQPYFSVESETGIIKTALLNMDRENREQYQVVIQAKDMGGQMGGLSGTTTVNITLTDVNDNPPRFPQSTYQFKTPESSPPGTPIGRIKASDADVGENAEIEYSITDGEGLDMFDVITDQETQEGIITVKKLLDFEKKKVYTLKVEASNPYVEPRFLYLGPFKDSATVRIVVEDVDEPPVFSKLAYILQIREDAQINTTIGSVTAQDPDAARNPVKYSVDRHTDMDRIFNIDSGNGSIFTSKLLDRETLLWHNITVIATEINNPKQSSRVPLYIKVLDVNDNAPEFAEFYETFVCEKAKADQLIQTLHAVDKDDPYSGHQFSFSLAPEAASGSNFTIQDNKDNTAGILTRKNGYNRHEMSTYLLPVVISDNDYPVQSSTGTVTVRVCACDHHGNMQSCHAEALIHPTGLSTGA
Experimental: (§1) Binding affinities of CL069707-H1L1 and Ch069707 were measured using the Octet® system based on Bio-Layer Interferometry (BLI) technique. Antibodies were loaded to AHC (Anti-hIgG Fc Capture) at 100 nM concentration. […] From the six different binding curves obtained from each antigen concentration, binding constants (KD) were calculated based on the 1:1 binding model. CL069707-H1L1 and Ch069707 binds to human CDH6-ECD-His antigen with similar affinity. CL069707-H1L1 binds to human CDH6-ECD-His and cyno monkey CDH6-ECD-His antigens with similar affinity.

cyno monkey CDH6-ECD-His = target: T2, cyno monkey CDH6-ECD-His (cyno monkey, UniProt A0A2K5TW62 54-615); assay: as above
T2 construct: extracellular domain; Bought protein; also called Cyno CDH6-ECD-His; not shown: His tag
T2 sequence: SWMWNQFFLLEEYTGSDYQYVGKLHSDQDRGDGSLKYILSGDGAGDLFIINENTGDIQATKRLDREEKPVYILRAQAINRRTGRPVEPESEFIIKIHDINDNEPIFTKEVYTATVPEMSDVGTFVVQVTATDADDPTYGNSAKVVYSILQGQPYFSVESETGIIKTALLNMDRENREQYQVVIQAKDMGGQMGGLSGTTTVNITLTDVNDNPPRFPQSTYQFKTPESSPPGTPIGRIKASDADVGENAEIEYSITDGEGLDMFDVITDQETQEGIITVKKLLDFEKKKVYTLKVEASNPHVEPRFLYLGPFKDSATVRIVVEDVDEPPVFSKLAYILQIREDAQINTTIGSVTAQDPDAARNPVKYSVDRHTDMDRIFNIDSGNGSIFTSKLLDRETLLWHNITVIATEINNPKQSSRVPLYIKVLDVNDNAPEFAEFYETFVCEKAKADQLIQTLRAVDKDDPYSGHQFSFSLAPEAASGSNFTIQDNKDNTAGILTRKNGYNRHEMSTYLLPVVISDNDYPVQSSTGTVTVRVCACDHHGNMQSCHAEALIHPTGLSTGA
Experimental: as §1

[1] = target: T3, CDH6 on the cell surface of OVCAR-3 cells (human ovarian cancer cells) (human, UniProt P55285 54-790); assay: flow cytometry (FACS) on OVCAR-3 cells, antibody titration, labelled secondary antibody, MFI
T3 construct: whole, on cells; also called CDH6-positive human ovarian cancer cell line OVCAR-3
T3 sequence (looked up): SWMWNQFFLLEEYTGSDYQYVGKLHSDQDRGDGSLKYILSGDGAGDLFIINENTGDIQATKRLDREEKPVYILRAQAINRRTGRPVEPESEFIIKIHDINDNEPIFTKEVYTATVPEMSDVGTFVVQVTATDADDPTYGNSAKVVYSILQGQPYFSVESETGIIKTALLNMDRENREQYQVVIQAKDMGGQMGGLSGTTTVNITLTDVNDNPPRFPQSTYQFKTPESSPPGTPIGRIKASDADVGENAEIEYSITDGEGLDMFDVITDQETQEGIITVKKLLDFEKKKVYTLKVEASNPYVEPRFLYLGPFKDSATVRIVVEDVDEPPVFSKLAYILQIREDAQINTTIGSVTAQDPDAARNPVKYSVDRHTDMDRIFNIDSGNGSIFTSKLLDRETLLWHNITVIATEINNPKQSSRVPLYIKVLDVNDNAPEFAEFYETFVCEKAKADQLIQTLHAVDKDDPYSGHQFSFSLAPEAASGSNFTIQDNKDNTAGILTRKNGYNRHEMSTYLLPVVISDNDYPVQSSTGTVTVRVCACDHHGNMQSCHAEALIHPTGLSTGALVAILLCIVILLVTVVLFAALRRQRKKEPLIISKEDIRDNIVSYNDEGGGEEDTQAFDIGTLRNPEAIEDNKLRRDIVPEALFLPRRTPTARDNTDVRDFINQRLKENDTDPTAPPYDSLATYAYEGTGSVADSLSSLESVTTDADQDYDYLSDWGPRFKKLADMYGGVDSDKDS
Experimental: The binding EC50 of the humanized antibodies on tumor cell were tested as follow. Human ovarian cancer cell line OVCAR-3(purchased from National Collection of Authenticated Cell Cultures) cell culture was maintained in vitro as independent monolayer cultures at 37° C. in an atmosphere of 5% CO₂. The cells were harvested using trypsin-EDTA partial digestion followed by centrifugation at 1000 rpm for 5 minutes. The cell was resuspended in cold PBS and serial dilution of Ch069707 and CL069707-H1L1, CL069707-H1L2, CL069707-H2L1 and CL069707-H2L2 antibodies were added. Ch069707 antibody was a chimeric antibody. The variable regions were the same as those of CL069707, and the constant region was the same as human IgG1 constant regions (SEQ ID NO: 70 and SEQ ID NO: 71). The cell solutions were mixed, incubated at 4° C. and washed with cold PBS prior to addition of secondary antibody conjugates (for detection purposes). After incubation at 4° C., the cells were washed with PBS, and then subjected to flow cytometry (FACS) analysis.

[2] = target: T3, CDH6 on the cell surface of OVCAR-3 …; assay: as above; remark: listed apart in the source

B1: Ch069707 (antibody, human IgG1, kappa, V domains shown)
VH: EVHLVESGGGLVQPKGSLKLSCVASGFTFTTYAMNWVRQAPGKGLEWVARIRIKNNNYATYYADSVTDRFTISRDDSQSMLYLQMNNLKTEDTAMYYCVRPDYGNYGLAYWGQGTLVTVSA
VL: EIVLTQSPTTMAASPGEKITITCSASSSISSHYLHWYQQKPGFSPKLLIYRSFYLASGVPLRFTGSGSGTSYSLTIGTMEAEDVATYYCQQDIVPLTFGAGTKLELKR
notes: also called anti-CDH6 chimeric antibody Ch069707
Kd (Human CDH6-ECD-His): 2.28 nM
Kd (cyno monkey CDH6-ECD-His): 2.19 nM
EC50 (read off the curve) [1]: ~0.7 nM

B2: CL069463-H2L2 (antibody, human IgG1, kappa)
heavy: not shown
light: DIQMTQSPSSLSASVGDRVTITCRASENIYYSLAWYQQKPGKAPKLLIYNANSLKDGVPSRFSGSGSGTDYTMTISSMQPEDFATYYCQQAYDVPPTFGGGTKVEIKRTVAAPSVFIFPPSDEQLKSGTASVVCLLNNFYPREAKVQWKVDNALQSGNSQESVTEQDSKDSTYSLSSTLTLSKADYEKHKVYACEVTHQGLSSPVTKSFNRGEC
notes: Humanized IgG1/kappa
EC50 (read off the curve) [2]: ~4 nM

B3: CL069463-H2L3 (antibody, human IgG1, kappa)
heavy: not shown
light: DIQMTQSPSSLSASVGERVTITCRASENIYYSLAWYQQKPGKAPKLLIYNANSLKDGVPSRFSGSGSGTDYTMTISSMQPEDFATYYCQQAYDVPPTFGGGTKVEIKRTVAAPSVFIFPPSDEQLKSGTASVVCLLNNFYPREAKVQWKVDNALQSGNSQESVTEQDSKDSTYSLSSTLTLSKADYEKHKVYACEVTHQGLSSPVTKSFNRGEC
notes: Humanized IgG1/kappa
EC50 (read off the curve) [2]: ~3 nM
